The values that follow come from paper PMC11439726.

The target of assay [1] is recombinant human FcRn protein (neonatal Fc receptor) (human) (UniProt P55899).
Assay [2] has the same target. This is another data set of the same source.

In the case of “CR3022 (human recombinant monoclonal antibody, wildtype IgG1-Fc)”, the decrease of basal-to-apical transcytosis of CR3022 (400 µg) across WD-HAE cultures with 10-fold excess IVIG (4 mg) as competitor in assay [1] turned out to be 50%.

As to “CR3022-LS (CR3022 with Fc containing the LS mutation) (antibody)”, in assay [2], the reduction of basal-to-apical transcytosis of CR3022-LS across WD-HAE cultures with excess IVIG as competitor turned out to be 20%.
